According to paper PMC9652393, “Differential impact of ubiquitous and muscle dynamin 2 isoforms in muscle physiology and centronuclear myopathy” (Nature Communications, 2022):

B1: Human SH3 domain of BIN1 with Glutathione S-transferase (GST) tag (domain or fragment, UniProt O00499 520-593, looked up)
chain: GFMFKVQAQHDYTATDTDELQLKAGDVVLVIPFQNPEEQDEGWLMGVKESDWNQHKELEKCRGVFPENFTERVP
notes: amphiphysin 2 (BIN1), human, SH3 domain; The methods also describe cutting off the GST tag with PreScission on the beads; also called GST-SH3; GST-SH3 of BIN1
B2: Human ubiquitous dynamin 2 isoform (Ub-DNM2), recombinant (natural protein, UniProt P50570-2 1-866, looked up)
chain: MGNRGMEELIPLVNKLQDAFSSIGQSCHLDLPQIAVVGGQSAGKSSVLENFVGRDFLPRGSGIVTRRPLILQLIFSKTEHAEFLHCKSKKFTDFDEVRQEIEAETDRVTGTNKGISPVPINLRVYSPHVLNLTLIDLPGITKVPVGDQPPDIEYQIKDMILQFISRESSLILAVTPANMDLANSDALKLAKEVDPQGLRTIGVITKLDLMDEGTDARDVLENKLLPLRRGYIGVVNRSQKDIEGKKDIRAALAAERKFFLSHPAYRHMADRMGTPHLQKTLNQQLTNHIRESLPALRSKLQSQLLSLEKEVEEYKNFRPDDPTRKTKALLQMVQQFGVDFEKRIEGSGDQVDTLELSGGARINRIFHERFPFELVKMEFDEKDLRREISYAIKNIHGVRTGLFTPDLAFEAIVKKQVVKLKEPCLKCVDLVIQELINTVRQCTSKLSSYPRLREETERIVTTYIREREGRTKDQILLLIDIEQSYINTNHEDFIGFANAQQRSTQLNKKRAIPNQVIRRGWLTINNISLMKGGSKEYWFVLTAESLSWYKDEEEKEKKYMLPLDNLKIRDVEKGFMSNKHVFAIFNTEQRNVYKDLRQIELACDSQEDVDSWKASFLRAGVYPEKDQAENEDGAQENTFSMDPQLERQVETIRNLVDSYVAIINKSIRDLMPKTIMHLMINNTKAFIHHELLAYLYSSADQSSLMEESADQAQRRDDMLRMYHALKEALNIIGDISTSTVSTPVPPPVDDTWLQSASSHSPTPQRRPVSSIHPPGRPPAVRGPTPGPPLIPVPVGAAASFSAPPIPSRPGPQSVFANSDLFPAPPQIPSRPVRIPPGIPPGVPSRRPPAAPSRPTIIRPAEPSLLD
notes: dynamin 2 (DNM2), human, ubiquitous isoform; same variant of exon 10 as the M-DNM2 plasmid; No tag is stated for the pVL1392 constructs; also called WT Ub-DNM2

Experiments:
[1] = target: B2; assay: pull-down; GST-SH3 of BIN1 (0.16, 0.4 or 1.6 ml supernatant) bound to GSH-Sepharose overnight, washed with 300 mM NaCl, 50 mM Tris pH 8.0, 5 mM imidazole, 1 mM DTT; 0.07 mg purified M-DNM2 or Ub-DNM2 added for 20 min, washed; resin loaded on SDS-PAGE; conditions: both partners purified
[2] = target: the molecule itself; assay: SEC-MALS; Superose 6 10/300 GL; 20 mM HEPES pH 7.4, 1.5 M NaCl, 1 mM EGTA, 1 mM DTT, 5% glycerol; 4 °C, 0.5 ml/min

Binder | binding result [1] | binding result [2]
B1 | binds | 
B2 |  | binds
